# Measurements: the supplement of paper PMC12764529
# ± gives the half width of the 95% confidence interval.
# How the values were obtained:
# [1] = folding stability dG unfold from chymotrypsin proteolysis; higher = more stable
# Protocol: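 Folding stability of de novo designed mini-proteins (<80 aa, no Cys; designed by TrROS, TrMRF, ProteinMPNN and the joint model) was measured by cDNA display proteolysis with trypsin and chymotrypsin. Each protease was used at 11 concentrations in a threefold dilution series plus a no-protease condition. K50 was inferred by Bayesian fitting of sequencing counts, and dG unfold was derived against a sequence-predicted unfolded-state K50 (Tsuboyama et al. method). Sequences shown include variable-length N-terminal GS-type padding (SAGGSAGG...) inside a display construct carrying a PA tag. Rows were kept only if the AF2 dimer inter-PAE was >15, to exclude likely homo-oligomers.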
# [2] = folding stability dG unfold (combined trypsin and chymotrypsin); higher = more stable
# Summary of the method: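 How resistant each design was to proteolysis was captured as K50, inferred by Bayesian fitting of sequencing counts. Unfolding free energy was then derived relative to a sequence-predicted unfolded-state K50 and a shared folded-state K50, per protease or combined. Digestion used trypsin and chymotrypsin at 11 threefold-diluted concentrations plus a no-protease condition, on mini-proteins under 80 residues without cysteine in a PA-tagged cDNA display construct. Designs were kept only when AlphaFold2 dimer inter-PAE was above 15.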
Sequence,folding stability dG unfold [1],folding stability dG unfold [2]
SAGGSDLSSASFSSSPSTLPDGRSLTTYPAVTLPDGTVATLTVETDPATGAPTVTLTLGDTDIVLATSAGGS [r16_766_JUSTAS],0.0331 ± 0.32 kcal/mol,-0.474 ± 0.25 kcal/mol
SAGGSAGGSAGSMVTPVTLERYVYIEPTPDGVERKRVVPVKVKETVTVDAAGNVTTTTEVLLSAGGSAGGSA [r18_284_JUSTAS],-0.871 ± 0.31 kcal/mol,< -1 kcal/mol
SAGGSAKLPPGQRVRLEIEHPAHGWTHEHTFPIKSVEEFKQSLEIPMPNPNGEPMPMRVKILDVEKSAGGSA [r15_797_TrROS],-0.363 ± 0.48 kcal/mol,< -1 kcal/mol
SAGGSAGGSAGMIVVPPEDLENLPPWYSVEPGEDSVTVWDESNPVVVPRDEPALVSPPERSAGGSAGGSAGG [r17_91_JUSTAS],0.72 ± 0.079 kcal/mol,-0.136 ± 0.22 kcal/mol
SAGGSASSEFNTDKKPPPLPKKSKVINLNIPTPPDETEEEAKKKAEEIANKLKEEGKYGEVTVKIESAGGSA [r15_450_JUSTAS],0.756 ± 0.17 kcal/mol,0.5 ± 0.41 kcal/mol
SAGGGTVVDPGPRVVTITVRPPDGKPRTITLPLPDATPEEIRARLEAVAAALPEAGATVDVLDIRPLPSAGG [r13_29_JUSTAS],0.941 ± 0.024 kcal/mol,0.397 ± 0.064 kcal/mol
SAGGSAGGSMTVTLSYPDGSTVTRPLEGKSLEEAIAALPEDVTEVQVTVLEGSTPVTRTVPRPSAGGSAGGS [r12_767_JUSTAS],0.731 ± 0.023 kcal/mol,0.344 ± 0.054 kcal/mol
SAGGSAGGSMTTLRTRLKGDGTVEIEVYEPGRIRTITLPPSEVDKIPDVEDLPRYELEGDAPESAGGSAGGS [r12_343_JUSTAS],0.147 ± 0.21 kcal/mol,-0.514 ± 0.22 kcal/mol
SAGGSAKIEIEWNPENGMVRVKAEYPNDGKKKEHTFNPGDSPKQLADDINQEFKKPVEIDEIEWYPSAGGSA [r15_544_TrROS],0.683 ± 0.04 kcal/mol,0.153 ± 0.44 kcal/mol
SAGGMLKVEVIEVPPDEVGPEKLRAEIKAKYPDVEVRFETLPDGTLRVTVEIPVPEEPSKPLPLEKKSAGGS [r16_535_JUSTAS],0.743 ± 0.077 kcal/mol,0.482 ± 0.3 kcal/mol
SAGMTPDETVNILVSPDDSPEKVAEIIARHGPLTVTLPGSTREFTSEEEIRALYEQHPEDQVINVTVLSAGG [r19_95_JUSTAS],-0.0129 ± 0.21 kcal/mol,-0.447 ± 0.28 kcal/mol
SAGGSAGGSAGAEPLVREFEGRRIVLYREEDPGTARIEVFVGDKPYTVPLEYVPEELLLDSAGGSAGGSAGG [r11_152_TrMRF],0.78 ± 0.085 kcal/mol,0.325 ± 0.053 kcal/mol
SAGGSAGGSAWYIRIKSPELRKKLKNAGGIKPTEREPNWVTFKFPGMPPKKRDKIRELIKDSAGGSAGGSAG [r3_398_TrROS],-0.644 ± 0.49 kcal/mol,-0.969 ± 0.26 kcal/mol
SAGGMKVTPLGTEPRPDGTTTTTYLSTLPNGTPVTTTTTTSTIPPPPVPPFSPEEVAAAAARRAAAASAGGS [r16_8_JUSTAS],0.249 ± 0.21 kcal/mol,< -1 kcal/mol
SAGGSMTIDDLKGMPVKEIAKRLGPGYEVNVDPNHGTLTLQHPNYQVTINVSPKDGYVKITEVTPHSAGGSA [r2_470_TrROS],-0.808 ± 0.32 kcal/mol,< -1 kcal/mol
SAGGSAGGSAGGSGGVTVSQYEGGKATRTVTSFDPVNNSTSTTTTTTFTIPPDEPVTVSSAGGSAGGSAGGS [r10_1153_JUSTAS],0.236 ± 0.2 kcal/mol,-0.371 ± 0.29 kcal/mol
SAGGSAGGSAGGGSMTKIGNGYLRYTLPGDTVVIYDPSTGTTQTLPVSNPVPVELPPNIPSAGGSAGGSAGG [r7_299_JUSTAS],0.671 ± 0.031 kcal/mol,0.208 ± 0.057 kcal/mol
SAGGSSSTPRIKTSVSSSTTVTPLPGPTTLVTTTTTTTTTNPANGQQLSTTPTTSTTVVTPGTGAALSAGGS [r8_204_JUSTAS],0.797 ± 0.053 kcal/mol,0.314 ± 0.12 kcal/mol
SGGATVEAFRRAPPGVRARILVEERGEELIVRLEIEGDDRRDEAEFPDPEEALARLLAAGVPVVVDELPASA [r9_1021_TrMRF],-0.708 ± 0.76 kcal/mol,< -1 kcal/mol
SAGGMVLEKKSPSGTTTKTVVEETPDELYVKTTTLKGKTPTTSESVIPAPPPPPLPFPSGRPEELQLLSAGG [r13_691_JUSTAS],-0.632 ± 0.45 kcal/mol,< -1 kcal/mol
SAGGMIEKVEIREVDPETGEVTVTFHVPSEDLEKLGPIPFPGVKEVRFFPGEKTIEARMPLEDALKHSAGGS [r16_614_TrMRF],0.538 ± 0.098 kcal/mol,-0.0448 ± 0.19 kcal/mol
SAGGSAGGSAGGSKRIRITIPENYRVRGPNGKQFSWNDIEELKASGFKPIEIEPLPPGASAGGSAGGSAGGS [r4_47_TrROS],-1.06 ± 0.4 kcal/mol,< -1 kcal/mol
SAGGSAGGSAGGTIQWDPANGRIKITNPNGKKKTIPIPPDDPEEFLKELKDNGIDRIEPVSAGGSAGGSAGG [r7_139_TrROS],0.964 ± 0.075 kcal/mol,0.38 ± 0.25 kcal/mol
SAGGSAGGSTTMTLTITEYTNDPEGGVKKKKSTTESTVSPEEVEKVAEEVKKKSKNVKVTVNSSAGGSAGGS [r12_342_JUSTAS],-0.315 ± 0.29 kcal/mol,-0.775 ± 0.23 kcal/mol
